Laboratory results as given in paper doi:10.1101/368936.

How the values were obtained:
[1] = molecular target: RHNO1-pT202 phospho-peptide (human); assay: fluorescence polarisation
[2] = molecular target: Mdb1-pT113 phosphopeptide (fluorescein-labelled) (S. pombe); assay: fluorescence polarisation

| Substance | fold tighter binding than RAD9-pS387 [1] [fold] | fold reduction of binding against wild type [2] [fold] |
| --- | --- | --- |
| TOPBP1-BRCT0,1,2 segment (wild type, recombinant) (domain or fragment) | 10 | – |
| Rad4-BRCT1,2 K155E (domain or fragment) | – | 20 |
